{"source": "paper PMC4521836", "target": "T1, IscR (Pseudomonas aeruginosa PAO1) (UniProt Q9HXI7)", "T1 sequence": "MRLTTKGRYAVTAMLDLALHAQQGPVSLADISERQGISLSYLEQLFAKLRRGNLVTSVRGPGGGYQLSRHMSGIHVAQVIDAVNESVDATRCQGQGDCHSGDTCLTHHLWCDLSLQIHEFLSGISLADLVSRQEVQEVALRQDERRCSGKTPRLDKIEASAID", "assay": "EMSA", "note": "Like-named read-outs stand apart in the source and are kept apart here.", "data": [{"sequence": "GTCAACCGCAAGCGCTGATCGGCCGCTGGCTATCCCCGTCAGCGGGGATATTTACAAGCCTTGCGGGTGTTTCTGCCGGGTGCTTTGCGGGACACTAGGGGAGTATCGGTATCCGGAGCGGACCATGACCGCCAGCGAAGAGAAATTCACCCGCCAGACGCTGCTCGACGTGCAGCCTCTGACT (double strand) [fprB promoter fragment, IscR site GCC to TTT]", "values": [{"measurement": "binding", "value": "no binding"}]}, {"sequence": "GTCAACCGCAAGCGCTGATCGGCCGCTGGCTATCCCCGTCAGCGGGGATAGCCACAAGCCTTGCGGGTGTTTCTGCCGGGTGCTTTGCGGGACACTAGGGGAGTATCGGTATCCGGAGCGGACCATGACCGCCAGCGAAGAGAAATTCACCCGCCAGACGCTGCTCGACGTGCAGCCTCTGACT (double strand) [fprB promoter fragment (native), 184 bp]", "values": [{"measurement": "binding", "setting": "20 mM Tris-HCl pH 8.0, 50 mM KCl, 4 mM MgCl2, 0.5 mM EDTA, 0.02 mg/ml BSA, 5 mM DTT, 10% glycerol, 200 ng poly(dI-dC), 3 fmol probe in 25 ul, 25 C 20 min, 7% …", "value": "binds"}]}]}
